Test [1] has as its target histidine-tagged human FcγRIIIa-158V (human) (UniProt P08637). Description: BLI (Octet Red384); His-tagged receptor on anti-Penta-HIS biosensor; antibody 15.6-500 nM, PBS pH 7.2; global 1:1 fit. (Biolayer interferometry detects binding as a change in optical thickness at a sensor tip.)
For test [2], the target named is histidine-tagged human FcRn (human) (UniProt P55899). Nature of the test: BLI (Octet Red384); His-tagged receptor on anti-Penta-HIS biosensor; antibody 75-1000 nM, PBS pH 5.8; global 1:1 fit.
Test [3] has as its target histidine-tagged mouse FcRn (mouse) (UniProt Q61559). The description is as above.
For test [4], the target named is histidine-tagged human FcγRIIIa-158F (human) (UniProt P08637). Description: BLI (Octet Red384); His-tagged receptor on anti-Penta-HIS biosensor; antibody 125-4000 nM, PBS pH 7.2; global 1:1 fit.
Test [5] concerns the target histidine-tagged human FcγRIIIa-158V (human) (UniProt P08637). The test is described as above.
Test [6] has as its target histidine-tagged mouse FcγRIV (mouse). Described as above.
The target of test [7] is histidine-tagged human FcRn (human) (UniProt P55899). Nature of the test: BLI (Octet Red384); His-tagged receptor (row FcRn) on anti-Penta-HIS biosensor; antibody 75-1000 nM, PBS pH 5.8; global 1:1 fit.
The target of test [8] is histidine-tagged mouse FcRn (mouse) (UniProt Q61559). Nature of the test: BLI (Octet Red384); His-tagged receptor (row moFcRn) on anti-Penta-HIS biosensor; antibody 75-1000 nM, PBS pH 5.8; global 1:1 fit.
In test [9] the target is histidine-tagged mouse FcγRIV (mouse). Description: BLI (Octet Red384); His-tagged receptor (row moFcγRIV) on anti-Penta-HIS biosensor; antibody 125-4000 nM, PBS pH 7.2; global 1:1 fit.
The target in test [10] is histidine-tagged human FcγRIIIa-158F (human) (UniProt P08637). Description: BLI (Octet Red384); His-tagged receptor (row FcγRIIIA (F158)) on anti-Penta-HIS biosensor; antibody 125-4000 nM, PBS pH 7.2; global 1:1 fit.
Test [11] addresses histidine-tagged human FcγRIIIa-158V (human) (UniProt P08637). Nature of the test: BLI (Octet Red384); His-tagged receptor (row FcγRIIIA (V158)) on anti-Penta-HIS biosensor; antibody 125-4000 nM, PBS pH 7.2; global 1:1 fit.

What is called Kd is the concentration at which binding is half-saturated. Read a high Kd as lower affinity. The koff is the first-order rate constant of dissociation. A word on the kon: it is the second-order rate constant of association. Lower therefore signals slow association. With “antigen-binding molecule specific for HER3 comprising GASD Fc, human IgG1 (G1m3 allotype) (antibody)”, in [1], the Kd worked out at 0.115 µM, the koff stood at 0.017 s⁻¹ and the on-rate (kon) is 150000 M⁻¹ s⁻¹.
Taken in the same sequence, the figures for “antigen-binding molecule specific for HER3 comprising GASDALIE Fc, human IgG1 (G1m3 allotype) (antibody)” were 0.024 µM, 0.0052 s⁻¹ and 220000 M⁻¹ s⁻¹.
Taken in the same sequence, the figures for “antigen-binding molecule specific for HER3 comprising GASDIE Fc, human IgG1 (G1m3 allotype) (antibody)” were 0.035 µM, 0.0072 s⁻¹ and 200000 M⁻¹ s⁻¹.
With “antigen-binding molecule specific for HER3 comprising Wildtype (WT) Fc, human IgG1 (G1m3 allotype) (antibody)”, the Kd in test [2] was determined as 0.0337 µM; in test [3], 0.0151 µM; in test [1] it was 0.317 µM; in test [4] it was 2.23 µM; in [5], 0.661 µM; in [6] it was 0.544 µM. For the same substance, the Kd was determined as 0.0337 µM in test [7]; 0.0151 µM in test [8]; 0.544 µM in [9]; 2.23 µM in test [10]; 0.661 µM in test [11].
